Laboratory results as given in publication PMC7189476.

Molecular target: human PCNA, purified (human), P12004
Assay: SPR; Bio-Rad XPR 36; human PCNA (~350 RU) immobilised on GLC chip by amine coupling; subunits injected at 125 to 2000 nM; 25 mM HEPES pH 7.5, 10% glycerol, 200 mM sodium acetate pH 7.8, 8 mM magnesium acetate, 1 mM DTT, 0.005% Tween-20, 0.2 mg/ml BSA; 20°C; 1:1 (Langmuir) model
Conditions: remark: other sources report otherwise

Sequence of human PCNA, purified (human), P12004 (P12004 whole entry): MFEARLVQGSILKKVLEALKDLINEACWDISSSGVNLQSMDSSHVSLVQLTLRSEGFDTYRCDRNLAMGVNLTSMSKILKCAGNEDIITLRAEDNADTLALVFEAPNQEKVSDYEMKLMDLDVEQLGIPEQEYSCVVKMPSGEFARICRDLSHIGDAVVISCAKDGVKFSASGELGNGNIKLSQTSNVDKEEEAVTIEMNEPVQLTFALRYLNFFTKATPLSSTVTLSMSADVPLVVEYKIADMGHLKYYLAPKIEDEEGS

B1: p125, purified, P28340 1-1107 (natural protein)
chain: MDGKRRPGPGPGVPPKRARGGLWDDDDAPRPSQFEEDLALMEEMEAEHRLQEQEEEELQSVLEGVADGQVPPSAIDPRWLRPTPPALDPQTEPLIFQQLEIDHYVGPAQPVPGGPPPSRGSVPVLRAFGVTDEGFSVCCHIHGFAPYFYTPAPPGFGPEHMGDLQRELNLAISRDSRGGRELTGPAVLAVELCSRESMFGYHGHGPSPFLRITVALPRLVAPARRLLEQGIRVAGLGTPSFAPYEANVDFEIRFMVDTDIVGCNWLELPAGKYALRLKEKATQCQLEADVLWSDVVSHPPEGPWQRIAPLRVLSFDIECAGRKGIFPEPERDPVIQICSLGLRWGEPEPFLRLALTLRPCAPILGAKVQSYEKEEDLLQAWSTFIRIMDPDVITGYNIQNFDLPYLISRAQTLKVQTFPFLGRVAGLCSNIRDSSFQSKQTGRRDTKVVSMVGRVQMDMLQVLLREYKLRSYTLNAVSFHFLGEQKEDVQHSIITDLQNGNDQTRRRLAVYCLKDAYLPLRLLERLMVLVNAVEMARVTGVPLSYLLSRGQQVKVVSQLLRQAMHEGLLMPVVKSEGGEDYTGATVIEPLKGYYDVPIATLDFSSLYPSIMMAHNLCYTTLLRPGTAQKLGLTEDQFIRTPTGDEFVKTSVRKGLLPQILENLLSARKRAKAELAKETDPLRRQVLDGRQLALKVSANSVYGFTGAQVGKLPCLEISQSVTGFGRQMIEKTKQLVESKYTVENGYSTSAKVVYGDTDSVMCRFGVSSVAEAMALGREAADWVSGHFPSPIRLEFEKVYFPYLLISKKRYAGLLFSSRPDAHDRMDCKGLEAVRRDNCPLVANLVTASLRRLLIDRDPEGAVAHAQDVISDLLCNRIDISQLVITKELTRAASDYAGKQAHVELAERMRKRDPGSAPSLGDRVPYVIISAAKGVAAYMKSEDPLFVLEHSLPIDTQYYLEQQLAKPLLRIFEPILGEGRAEAVLLRGDHTRCKTVLTGKVGGLLAFAKRRNCCIGCRTVLSHQGAVCEFCQPRESELYQKEVSHLNALEERFSRLWTQCQRCQGSLHEDVICTSRDCPIFYMRKKVRKDLEDQEQLLRRFGPPGPEAW
With B1 as the binder, how does the Kd read?
The Kd was 114 nM.

And the koff?
Its koff is 0.0002 s⁻¹.

And the kon?
Its kon is 1750 M⁻¹ s⁻¹.

And the response units?
The response units was 90 RU.
